For three substances, Kd, fold higher affinity than ERK1 and fold higher affinity than NPM 9-122 results are on record in publication PMC7991746.

The target of assay [1] is DUSP3-C124S mutant (phosphatase dead) (UniProt P51452). In words: SPR; Biacore T100; DUSP3-WT or DUSP3-C124S immobilised on CM5 sensorchip (200 RU); protein analytes 12.5-1,000 nM; kinetic assays at 25°C, HBS-EP buffer, 10 μl/min, 120 s association, 300 s dissociation; three independent experiments. For orientation: SPR reads the build-up and loss of mass on a sensor chip optically.

The target in assay [2] is DUSP3-WT (dual-specificity phosphatase 3) (UniProt P51452). The assay is described as above.
Assay [3] concerns the target dual-specificity phosphatase 3 (DUSP3), wild type (UniProt P51452). In words: SPR; Biacore T100; DUSP3-WT or DUSP3-C124S immobilised on CM5 sensorchip (200 RU); analytes 12.5 to 1,000 nM; 25°C; HBS-EP buffer; association 120 s, dissociation 300 s, 10 μl/min.

Sequence of DUSP3-C124S mutant (phosphatase dead) (P51452 whole entry C124S): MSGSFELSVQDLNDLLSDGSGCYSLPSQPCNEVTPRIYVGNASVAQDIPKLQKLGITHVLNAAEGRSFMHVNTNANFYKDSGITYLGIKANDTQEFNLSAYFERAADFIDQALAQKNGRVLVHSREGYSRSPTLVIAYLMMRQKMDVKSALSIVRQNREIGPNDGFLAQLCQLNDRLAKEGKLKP
Sequence of dual-specificity phosphatase 3 (DUSP3), wild type (P51452 whole entry): as the sequence (P51452 whole entry C124S) above, with S124C counted along it
Sequence of DUSP3-WT (dual-specificity phosphatase 3) (P51452 whole entry): as the sequence (P51452 whole entry C124S) above, with S124C counted along it

By Kd is commonly meant the concentration at which binding is half-saturated. Read a high Kd as a looser complex. With “NPM full length (nucleophosmin) (natural protein)”, the Kd turned out to be 11.5 nM in assay [1] and 17.2 nM in assay [2].

In assay [3], “nucleophosmin (NPM) full length (natural protein)” yielded a fold higher affinity than ERK1 of 10 fold and a fold higher affinity than NPM 9-122 of 17 fold.

Consider “truncated N-terminal of NPM 9-122 (domain or fragment)”, for which the Kd in assay [1] came to 393 nM; in assay [2] it was 294 nM.
